Values of other authors in PMC4278352.

Molecular target: PikAIII docking domain (Streptomyces venezuelae) (UniProt Q9ZGI3)
Sequence of UniProt Q9ZGI3 (Q9ZGI3 1-34): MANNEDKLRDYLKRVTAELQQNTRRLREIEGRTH

PikAII docking domain (from UniProt Q9ZGI4)
Kd: 5 µM
